# The domain aggregation screens of Martell et al. (2025)
# Experiment: soluble fraction after stress (log2 fold change); higher = more stays soluble; pooled small domains, quantitative proteomics
# Conditions: stress: 75 degC
# 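Further: 20 min heating vs room temperature control held 20 min.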
row,Sequence,soluble fraction (log2)
1,HMNEYSLVPDIYGMTYDDALSSLRNVGLDGRLALASTNEDLANADTRVVWQSKEAGSIIDKGSNVMFVID,-0.01
2,HMNFAERIKELRKEKGITQIDLAEAVGLSKGTVAMWEVDKREANFDTLNKLSDYFQVSIDYLLGRSNDRS,-0.0785
3,HMNFDVETGLPLDSRLVVSGLIQRDGINSLKRYEGMIVYVESEAKNYQLVGGISNTDWAELS,-1.35
4,HMNFGEVLQTKRKSMGLTQEDLADKLFVSSETISNWETNKTTPDIDNVIRISQLFDISLNNLLL,-0.415
5,HMNFIPGEKINLKIVQEGKEKNQGVGYLSDGTMVIVENGSQKLGQDVEVVVIKNIQSSAGKIVFGDISK,0.158
6,HMNFSRQREIIYEQVRNFPVHPTAEEVYRALKNDNPNLSLGTVYRNLNQLSEAGMLLKIPIADGSDRFDGR,-0.655
7,HMNFTETENRIYEEILKNVKQHKKKTVVQIAEKVDVAPSYVIKVAKKLGYSGLNEMWYSLSGIY,-0.916
8,HMNFTMERLYTKELTSEDIDEIKKELNSMGYTEGVEFNIIKGDKTSFIMAERQLKAKMLSHLSDLGLPRGA,-0.245
9,HMNGAAAEQARKQLMTALKASEFIAQDKLDEWLDALALPQEKRSAIIDAVDELDYEEAISELEN,0.287
10,HMNGDWISARQEYYIRGLWDLASRAKDEASLQAMLQRIAGVTQIEWISKEKATKVILALRDIAKK,-1.6
11,HMNGELSQRQWQILRLIAQGLSNEQMARQLFVAPSTIKTHINHLYAKLGVRTRAEAQAIARQKLMA,-1.23
12,HMNGIFEYSDAKKVPSLVEIENAYRRARVNGAEKFAVIINGEYFGYNPQKRGIYKLNDGEYQIL,-0.428
13,HMNGKPDMTPIPAGSRNNDLHAWAYGRLLNHPDNAEAIRRDLFERGQTSGLKESELETIWQSIRRQLGGD,0.44
14,HMNGKTIEVPDITEKSIAEAQLILNQKKLRYNVVDSTRFDPAYLPFSVLTQEPEAGDEVKKNRTIYITLNP,-0.183
15,HMNGLDSVLRNWARQTLASGGENLLGDLTDHVTRLIISEALIMTGGNRTRAAELLGLSRPTLLAKMDKLNL,-2.92
16,HMNGPTPEEKLAVVNAEFVRQYGDEYEELELEGEELEEYYQKALNKEDFEYDIPHLPGWDEP,-0.174
17,HMNHHEIIMKNIDTLLKEKNISISKLEKSLGISNGYISRLRNGKYNFSLDLLLKLAKKFKISIDYLLTDFD,-0.317
18,HMNHNPSIARKISREIKRGAPPESLLNLARTVNDSYYRSLSFVSIAYSIKGKKSKELFEEAISNLT,-0.107
19,HMNHTIEENDRVLILDPRGKKYLITVTNRVFHTNLGKLDISELIGKNYGDKIKSHMGKNFSILKPNLIDYI,-0.0314
20,HMNIAEIGQKVAQQRVALGISQERLAKLSDLSRSTIHHLEHGTLHEIGAAKLFKLLSLLDIQLK,-2.07
21,HMNIDQAFISDLERMIMPDISKYELMDIISIMENSGFTIKVEGTGNEVRQVIKPGSKLKKGQKIKIKL,-2.03
22,HMNIEIIEVQEESTPSEISKIISTESTKIIEDLLNLGVMASLETPLKNQDIEKLLEGYGYIVDIKP,0.0251
23,HMNIGEKIKKIRTQQNKSTYELADIINKNGFKISQSAISKIENGRKKIDIETLEEIAKALDIEVDLLIT,-0.153
24,HMNIGIVSLAAVPMRKEPSDRAEMVNQILFGETFDVLEEQEKWTLVQLHHDAYQGWIDRKQWDYASGIAD,-1.33
25,HMNIIHNPSKNFIESDLNDLKEGMEIEHKKFGYGLIKSIDKTQNHQKAVVNFKLVGEKTLLLSFARLRIV,-3.15
26,HMNIILFLDELHRLLSDLPPEERNQAIKYYEDYFEDAGPENEQAILKELGSPQELANQIKATT,-0.94

row,Sequence,soluble fraction (log2)
1,HMNIIMLGEFIKEQRIKRKMTQEYLASELGISRPTYSQIELGTRELTIPEARKMAAIFNISLEDFLAEKE,-2.35
2,HMNIMNINQALNVLNLKGTVSKEELAKAYKKMAIKYHPDRNPTGVEMMKVINSAYEFLKGLNLEEIKH,0.0759
3,HMNINLNVGKRLKSIRQNKELSLDEVSNLTNVSKPALAQIERGASSPTINTLWKISKGLKVPLSYFLQE,-0.713
4,HMNINVRNTGIKAVENNIINLSSDQRTFTWASNDRKLITVPFDENPYSALAAWFKTDEGIEVYQTIEKKL,-0.0488
5,HMNIWNEWAFKKWIESDEYTGPDMTDFGHRTLVDEEFSKQYKEQMSLFKERVLTDDEFSAKYGDL,-0.811
6,HMNKEDIASNEKLLGLLNHMSKVLKDIDFIKDDRPMIVRKINHIFKKATLSEEEINILRGVLSAIENHS,-1.46
7,HMNKEKLLEMFESMSIIIVQSLEEKEQTEDRIETELFNEAKTPRYSTLTKQDIQSVIRNILITVGV,-1.76
8,HMNKELVVPDLTDMRVKDAEFEAHQVGMRTEIVDSVYVRRLKRGYVYKQNPVPGSKVKKGRRIALTINAV,0.212
9,HMNKETYIDALERKLWDRLDPDQLRDIISYYKDYFAMEAAKGISEEETIRKLGDPALLAKSILAAE,-0.332
10,HMNKEVDLPNFVGMTKENAQAQADKIKIKLEFEEEYSSDVEEGKIISQNPEYKENYKIKEKSTVSLKI,0.312
11,HMNKFKVNERVRVIATGEIGIVKGREILPVEGSKRVNIEYLVKVGNGFSNWKAFSKKELEPVR,-1.88
12,HMNKFRVGDEVEIVKLDKTIQHFGGEEVLSPVGTKTYITYVDVTGKEIEIDKDIYSYHADDLTLV,≥ 1.04
13,HMNKKLEMKIEQLDLSVRLFNSLKRSGIYTVAQIIKLTEEDVMRFRSLGRKSFKELKEKLSEHGLEFE,-2.14
14,HMNKLKALREEQGLSMMEIAKQLNMPYTTYVNYEKGTREPNSEMLIKFSKFFNVTIDYLIGNSEQKN,-2.48
15,HMNKNLQLMINEIKKGLASEDIETRKKSVLMLSRIDAPEIIQVLEPLKDDSSEEIRKISSKIISVLSKKYT,-0.108
16,HMNKNQGVTTTNLNFRKSASTSSLVLYTIPKNTTLDILDKLPSGWYKVKYKGLTGYVSGSYV,-2.99
17,HMNKPTFNIFNNRLTFPFKGDITIYSLDGKRVFSAYNESSVNLSFLNRGSYISEFNNSRSVLIL,-1.34
18,HMNKRKQRINDLMDLIREQPALSIKNLAEMLNVSEMTIRRDMAYLKSNNLLNRAHGMNFLNS,-0.407
19,HMNKSEFLNELEKRIRVLEKNEIKDILAEYSQHIDMRMGSGLSEAEAIKDFGDMDDLAAEILEAY,-0.277
20,HMNKVDEEKNAELVSTIQNKFSDVSAATKKKVKAFMAEHDIPNFKNADEIPTANLEAIVAMLNED,0.255
21,HMNKYNNIEDLKEEDFENISEKYQVPVSFVKSKLDDLINWHEKNPQKNHYKNYLSALRDWVKRDSLKIKL,-0.132
22,HMNLDELGNRIREQRIKQRLKQQDIANALMLSAQAVSKWERGENAPDISVLPDLVKILGVSVDWLLTGP,-0.949
23,HMNLDPHVVGHRLRDLRTRRDLTLADVAAETDISVSTLSRLESGSRRATLELLVPLARTYRVTLDELVDA,-1.15
24,HMNLDPIKRKSEILSLFESHKNVKFNEIFFEKVNKEFTVLTFLIILELVKDNIIDFSQTQEGLIEFFTR,-0.00641
25,HMNLDVPGIIKRAKQALNLKRDSELAEFLGVSRATVTNWAARNSIDFRLLLDKLGNTVDYNWLLLGKGNPK,-1.11
26,HMNLDYKQFQVFNNIETLNTFTNLLSDNKIDFEVENNSKIFDPSFANNDFEKEYIVKIHPNDFEKVY,0.0557

row,Sequence,soluble fraction (log2)
1,HMNLEIGAIIKSLRAKHKYTQEQLSAFLGVTPQAVSRWEAGNGYPDIELLPAIARFFEVSTDELLGL,-2.2
2,HMNLGDLYVIMEIAGQRDDVSARLMNREGQTFLVKTGTKLKSGDVVKEITPTYIKTDHDGEEAFLYF,-0.78
3,HMNLGETIYNLRKEKKLSQGDLAEQLSVSRQSVSKWENNSAVPDLDKLVKLSTIFGVSLDELVKG,-0.0337
4,HMNLGLTGDPSVLYSILLQRGDSSRADLQRQTGWSLSKTTLVLNQLLAQKLIVQVGAGRSTQYRVIN,-2.78
5,HMNLGNLAYESKVTKQVLNMIRPLHPEYSSDDITRAVKEILSEEGSRQRRVDEIARGALDVLMGNPR,0.0661
6,HMNLLQAHLLRLESAALLAEVREVDRQLSRWLHPLTPQSDVAIIDERNWEAAVARLTELGVHIEEGRW,-3.05
7,HMNLNIGNNIKNIRKSKNMTQTDFAELMGLSRSYIGDLENNRSNPSIKTLEAIARALDVPIVALIN,-0.528
8,HMNLSSETLSEMEARIGQMGVVELQDRRAYLLQEQEGTQNPSRLKEIADELSAIQKALVALV,0.705
9,HMNLTEIGQRIRDRREELGLSQDRLAKLGGLPRVTINQLETGSIGDLGVSKLLNLLDLLGLTLDA,-0.559
10,HMNLTLMDALKAAGLPVDGINLSMVNKMMEEQMPIDKTSLNQMYQLVQDNKDINVTTLVELKRLG,0.0398
11,HMNLTSNDAYSRILNAIITSELRPGDTVTEIQLAQKFGFGRTPVREAIMRLENEGFIVSAERKKRVYIL,-2.97
12,HMNLTSSDIQKILSYALLADNSITLNSIEESMASLKLKKMSAEQLIELLEVSSMVLRNTNNSWSIL,-2.28
13,HMNMENIADKIGKIYESLPEDLKLMIKYRDIDDLTYDEIAVKADLPVGTVRSRLHRAREQLLKELEKN,-0.233
14,HMNMEPNWLKWAKQLAALAQNGLTYSDNPYEIERYEHIRRIAAEMMAEGFELDTKTILELFPREKG,-2.68
15,HMNMFDMRKTGARISQLRRAAGLTQAELAEKLGISYQAVSSWERGSNMPDIGKLLDLARILNTTVDALLSA,-1.19
16,HMNMGKRFKELRKERKFTQQQLADRIGLAPSAISSYESGARYPSYDVLIKYSKIFHVTTDYLLG,-2.79
17,HMNMKVGPVPANVVPANIKAHVSNNYSKYQIVQMMQNDKGYQVKLSNGTDLYYDKDGNILKTS,0.0129
18,HMNMSVGAALRRRRNELGMTLRELADEAELTSGFLSQVENDRVSPSLKSLGRIAEVLRIPLFQLLS,-1.72
19,HMNMSVVEKVIQQISNPGRDSLIPILQAVQEEEGFISRESVIEIGKALDLPASKIYGVATFYNQFR,-0.206
20,HMNMTDVLVVNQTVRGGTQITESMLSVKKVDKSSLPDNYLKASLKDEVVGKYFDLGLTSGGVLTKDNISVS,-0.154
21,HMNMVSGHLQIKKGYYYVVLSYYDNRNKRHVKYVSTGLPEKGNKRKAEAALARVRSEFEPPQE,-3.95
22,HMNNDFIVKSTDSHKVNLRSQPDTHADIIKRLDDHTIVEKLKTVRKNWYLVQLKDTTTQGYVHKSQLERV,-0.357
23,HMNNDFVERLRKLFGHASMAEIARRIDVPHATIRNYFQGRLPAPEVLIKLARETGVSLNWLLTGEGKMFA,-1.19
24,HMNNENELSSIISKVLEENPAEKERFLNGEKKLAGFFMGKIMKATKGTADPKKAAQLLNEIL,0.311
25,HMNNFNVVVGKAIKNSFNTRENYITINAGKVLGIKTDMGVINDKGIVGIVEKTSKDFATIQSVLNIKS,0.177
